Measurements reported in article PMC8698322, “Autophagy Is Involved in the Viability of Overexpressing Thioredoxin o1 Tobacco BY-2 Cells under Oxidative Conditions” (Antioxidants, 2021).

Biological target: the molecule itself
Assay: SDS-PAGE (reductant-free sample buffer) and Western blot with anti-His; recombinant HsATG4B treated with 1 mM or 3 mM H2O2 for 5 min at 25 °C in TBSK buffer (50 mM Tris-HCl, 140 mM NaCl, 30 mM KCl, pH 8.0); high-molecular-weight signal on the blot

B1: recombinant human ATG4B, His-tagged (His-HsATG4B) (enzyme, UniProt Q9Y4P1 1-393, looked up)
chain: MDAATLTYDTLRFAEFEDFPETSEPVWILGRKYSIFTEKDEILSDVASRLWFTYRKNFPAIGGTGPTSDTGWGCMLRCGQMIFAQALVCRHLGRDWRWTQRKRQPDSYFSVLNAFIDRKDSYYSIHQIAQMGVGEGKSIGQWYGPNTVAQVLKKLAVFDTWSSLAVHIAMDNTVVMEEIRRLCRTSVPCAGATAFPADSDRHCNGFPAGAEVTNRPSPWRPLVLLIPLRLGLTDINEAYVETLKHCFMMPQSLGVIGGKPNSAHYFIGYVGEELIYLDPHTTQPAVEPTDGCFIPDESFHCQHPPCRMSIAELDPSIAVGFFCKTEDDFNDWCQQVKKLSLLGGALPMFELVELQPSHLACPDVLNLSLDSSDVERLERFFDSEDEDFEILSL
notes: human cysteine protease ATG4B, recombinant, bought; printed size with His tag 47 kDa; No catalogue number is printed; source: bought: Abcam
B1: binds.
